The values that follow come from patent publication US20110250284A1, “Nanoparticles for Use as Synthetic Platelets and Therapeutic Agent Delivery Vehicles” (priority 2008, published 2011).

This experiment has as its system NSCs. Kind of experiment: NSC behavior cultured near hydrogels with CNTF delivery component. To be noted: seven days. It is filed as cell-based. As for the experimental part: NSCs were positive for green fluorescent protein (GFP) and were maintained in high glucose DMEM/F12 (1:1) supplemented with 20 ng/mL mouse epidermal growth factor (EGF), N-2, B-27, penicillin/streptomycin, and L-glutamine.
To test the response of NSCs cultured near but not directly on or within hydrogels with a CNTF delivery component, NSCs were seeded as neurospheres in chamber slides at a concentration of 5×10^5 cells/mL. A hydrogel containing acrylated nanoparticles encapsulating an estimated 10 ng of CNTF was added to the culture medium. In other experiments a hydrogel containing either blank (BSA-only) nanoparticles, no nanoparticles, or unencapsulated CNTF at 10 ng/mL was added, and no hydrogel was added in the negative control. Throughout the seven days of the experiment, the migration of NSCs out of the neurospheres was measured using the fluorescence of the GFP NSCs. At the end of seven days, all hydrogels were removed. Cells were fixed for analysis in 10% formalin for 1 hour and rinsed in 1× PBS. Differentiation was quantified by immunocytochemistry as described below.
Samples were blocked (3% normal goat serum, 5% BSA, 0.3% TritonX-100) for 1 hour, then rinsed and incubated with primary antibodies against mouse β-III-tubulin (B3T; Promega; 1:1000), mouse nestin (BD Biosciences; 1:200), rabbit glial fibrillary acidic protein (GFAP; Sigma; 1:160), rabbit oligodendrocyte transcription factor 1 (Olig1; Chemicon; 1:200), or caspase-3 (Sigma, 1:10) for 2 hours. They were then rinsed and incubated with species-specific Alexa Fluor 647 secondary antibodies (Molecular Probes; 1:200) for 1 hour, and rinsed again. Cells in chamber slides were also stained with DAPI (1:35000) for 5 minutes, rinsed again, and stored in 1× PBS at 4° C. […]
The slides were viewed using a Zeiss Axiovert 200 microscope with a Zeiss Mrc camera, and images were captured through Axiovert 4.0 software. Expression of each marker was quantified by the ratio of the area of fluorescence for each marker to the area of fluorescence for the GFP labeling. Results are expressed as mean±coefficient of variation.

B1: CNTF: Recombinant human ciliary neurotrophic factor with BSA carrier (R&D Systems) (protein, UniProt P26441 1-200, looked up)
Ciliary neurotrophic factor: MAFTEHSPLTPHRRDLCSRSIWLARKIRSDLTALTESYVKHQGLNKNINLDSADGMPVASTDQWSELTEAERLQENLQAYRTFHVLLARLLEDQQVHFTPTEGDFHQAIHTLLLQVAAFAYQIEELMILLEYKIPRNEADGMPINVGDGGLFEKKLWGLKVLQELSQWTVRSIHDLRFISSHQTGIPARGSHYIANNKKM
modifications: BSA carrier
For the molecule B1, the “migration of NSCs out of neurospheres” value (hydrogel added to culture medium) was “increased migration”. Besides, for the setting “immunocytochemistry”, the GFAP expression result is listed as “upregulation of GFAP” and the nestin expression entry is given as “downregulation of nestin”.
